Bridge positions count the residues as written; N and C are the ends. Square brackets hold non-standard residues; d marks the D form. 1Nal = N[C@@H](Cc1cccc2ccccc12)C(=O)O; d2Nal = N[C@H](Cc1ccc2ccccc2c1)C(=O)O; Bta = N[C@@H](Cc1csc2ccccc12)C(=O)O; βAla = NCCC(=O)O
B1: Ac-c(Cys-Glu-His-D-2-Nal-Arg-1-Nal-Ala-Cys)-Pro-Pro-Lys-Asp-β-[…]NH2 (peptide)
peptide: Ac-CEH[d2Nal]R[1Nal]ACPPKD[βAla]RRRRRRQRRR-NH2
modifications: disulfide 1-8
B2: Ac-c(Cys-Glu-His-D-2-Nal-Arg-1-Nal-Ala-Cys)-Pro-Pro-Lys-Asp-β-[…]NH2 (peptide)
peptide: Ac-CEH[d2Nal]R[1Nal]ACPPKD[βAla]GRRKRRQRRR-NH2
modifications: disulfide 1-8
SMILES: CC(=O)N[C@H]1CSSC[C@@H](C(=O)N2CCC[C@H]2C(=O)N2CCC[C@H]2C(=O)N[C@@H](CCCCN)C(=O)N[C@@H](CC(=O)O)C(=O)NCCC(=O)NCC(=O)N[C@@H](CCCNC(=N)N)C(=O)N[C@@H](CCCNC(=N)N)C(=O)N[C@@H](CCCCN)C(=O)N[C@@H](CCCNC(=N)N)C(=O)N[C@@H](CCCNC(=N)N)C(=O)N[C@@H](CCC(N)=O)C(=O)N[C@@H](CCCNC(=N)N)C(=O)N[C@@H](CCCNC(=N)N)C(=O)N[C@@H](CCCNC(=N)N)C(N)=O)NC(=O)[C@H](C)NC(=O)[C@H](Cc2cccc3ccccc23)NC(=O)[C@H](CCCNC(=N)N)NC(=O)[C@@H](Cc2ccc3ccccc3c2)NC(=O)[C@H](Cc2c[nH]cn2)NC(=O)[C@H](CCC(=O)O)NC1=O
B3: Ac-c(Cys-Glu-His-D-2-Nal-Arg-Bal-Ala-Cys)-Pro-Pro-Lys-Asp-β-[…]NH2 (peptide)
peptide: Ac-CEH[d2Nal]R[Bta]ACPPKD[βAla]RRRRRRQRRR-NH2
modifications: disulfide 1-8
B4: Ac-c(Cys-Glu-His-D-2-Nal-Arg-1-Nal-Ala-Cys)-Pro-Pro-Lys-Asp-β-[…]NH2 (peptide)
peptide: Ac-CEH[d2Nal]R[1Nal]ACPPKD[βAla]GRKRRRQRRR-NH2
modifications: disulfide 1-8
SMILES: CC(=O)N[C@H]1CSSC[C@@H](C(=O)N2CCC[C@H]2C(=O)N2CCC[C@H]2C(=O)N[C@@H](CCCCN)C(=O)N[C@@H](CC(=O)O)C(=O)NCCC(=O)NCC(=O)N[C@@H](CCCNC(=N)N)C(=O)N[C@@H](CCCCN)C(=O)N[C@@H](CCCNC(=N)N)C(=O)N[C@@H](CCCNC(=N)N)C(=O)N[C@@H](CCCNC(=N)N)C(=O)N[C@@H](CCC(N)=O)C(=O)N[C@@H](CCCNC(=N)N)C(=O)N[C@@H](CCCNC(=N)N)C(=O)N[C@@H](CCCNC(=N)N)C(N)=O)NC(=O)[C@H](C)NC(=O)[C@H](Cc2cccc3ccccc23)NC(=O)[C@H](CCCNC(=N)N)NC(=O)[C@@H](Cc2ccc3ccccc3c2)NC(=O)[C@H](Cc2c[nH]cn2)NC(=O)[C@H](CCC(=O)O)NC1=O
B5: Ac-c(Cys-Glu-His-D-2-Nal-Arg-Bal-Ala-Cys)-Pro-Pro-Lys-Asp-β-[…]NH2 (peptide)
peptide: Ac-CEH[d2Nal]R[Bta]ACPPKD[βAla]RKRRRQRRR-NH2
modifications: disulfide 1-8
SMILES: CC(=O)N[C@H]1CSSC[C@@H](C(=O)N2CCC[C@H]2C(=O)N2CCC[C@H]2C(=O)N[C@@H](CCCCN)C(=O)N[C@@H](CC(=O)O)C(=O)NCCC(=O)N[C@@H](CCCNC(=N)N)C(=O)N[C@@H](CCCCN)C(=O)N[C@@H](CCCNC(=N)N)C(=O)N[C@@H](CCCNC(=N)N)C(=O)N[C@@H](CCCNC(=N)N)C(=O)N[C@@H](CCC(N)=O)C(=O)N[C@@H](CCCNC(=N)N)C(=O)N[C@@H](CCCNC(=N)N)C(=O)N[C@@H](CCCNC(=N)N)C(N)=O)NC(=O)[C@H](C)NC(=O)[C@H](Cc2csc3ccccc23)NC(=O)[C@H](CCCNC(=N)N)NC(=O)[C@@H](Cc2ccc3ccccc3c2)NC(=O)[C@H](Cc2c[nH]cn2)NC(=O)[C@H](CCC(=O)O)NC1=O
B6: Ac-c(Cys-Glu-His-D-2-Nal-Arg-Bal-Ala-Cys)-Pro-Pro-Lys-Asp-β-Ala-Tyr-Gly-Arg-Lys-Lys-Arg-Arg-Gln-Arg-Arg-Arg-NH2 (peptide)
peptide: CEHXRXACPPKDXYGRKKRRQRRR
modifications: N-terminal Ac; D-2-Nal at 4; Bal at 6; β-Ala at 13; disulfide Cys1-Cys8; C-terminal NH2
B7: Ac-c(Cys-Glu-His-D-2-Nal-Arg-1-Nal-Ala-Cys)-Pro-Pro-Lys-Asp-β-[…]NH2 (peptide)
peptide: Ac-CEH[d2Nal]R[1Nal]ACPPKD[βAla]RRRRRQRRR-NH2
modifications: disulfide 1-8
B8: Ac-c(Cys-Glu-His-D-2-Nal-Arg-1-Nal-Ala-Cys)-Pro-Pro-Lys-Asp-β-Ala-Tyr-Gly-Arg-Lys-Lys-Arg-Arg-Gln-Arg-Arg-Arg-NH2 (peptide)
peptide: CEHXRXACPPKDXYGRKKRRQRRR
modifications: N-terminal Ac; D-2-Nal at 4; 1-Nal at 6; β-Ala at 13; disulfide Cys1-Cys8; C-terminal NH2

Target: T1, human melanocortin receptor subtype 1 (hMC1-R) (human, UniProt Q01726 1-317)
T1 construct: whole, on cells; membranes of CHO-K1 cells
T1 sequence (Q01726 whole entry): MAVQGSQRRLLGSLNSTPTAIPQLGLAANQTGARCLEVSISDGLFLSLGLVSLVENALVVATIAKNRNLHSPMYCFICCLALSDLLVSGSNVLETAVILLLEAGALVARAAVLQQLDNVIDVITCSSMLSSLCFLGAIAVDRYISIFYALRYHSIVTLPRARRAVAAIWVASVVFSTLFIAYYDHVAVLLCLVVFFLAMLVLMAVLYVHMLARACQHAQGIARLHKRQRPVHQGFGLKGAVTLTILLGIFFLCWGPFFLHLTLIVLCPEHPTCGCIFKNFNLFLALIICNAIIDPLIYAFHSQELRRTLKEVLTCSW
Experiment: [125I]-NDP-α-MSH competition, membranes

How did the Ki turn out when B1 was run?
The Ki was 6.66 nM.

With B2 as the binder, how does the Ki read?
The Ki was 1.81 nM.

How did the Ki turn out when B3 was run?
The Ki was 6.77 nM.

B4 was tested. Which Ki did it give?
Its Ki is 2.69 nM.

B5 was tested. Which Ki did it give?
The Ki was 3.28 nM.

For B6, which Ki is on record?
Its Ki is 6.46 nM.

For B7, which Ki is on record?
Its Ki is 2.42 nM.

Which Ki does the source give for B8 here?
Its Ki is 4.59 nM.

Target: T2, human melanocortin receptor subtype 4 (hMC4-R) (human, UniProt P32245 1-332)
T2 construct: whole, on cells; membranes of CHO-K1 cells
T2 sequence (P32245 whole entry): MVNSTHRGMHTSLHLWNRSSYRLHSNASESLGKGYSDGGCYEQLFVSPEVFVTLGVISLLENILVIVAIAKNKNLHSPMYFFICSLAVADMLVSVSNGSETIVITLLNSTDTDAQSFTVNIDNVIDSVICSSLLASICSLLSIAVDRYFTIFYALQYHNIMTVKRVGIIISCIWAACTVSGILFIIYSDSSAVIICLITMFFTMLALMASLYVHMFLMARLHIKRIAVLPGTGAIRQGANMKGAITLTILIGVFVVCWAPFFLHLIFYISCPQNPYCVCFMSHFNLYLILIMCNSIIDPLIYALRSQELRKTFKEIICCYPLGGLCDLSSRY
Experiment: [125I]-NDP-α-MSH competition, membranes

How did the Ki turn out when B1 was run?
Its Ki is 0.819 nM.

B2 was tested. Which Ki did it give?
Its Ki is 0.305 nM.

How did the Ki turn out when B3 was run?
Its Ki is 0.781 nM.

How did the Ki turn out when B4 was run?
The Ki was 0.243 nM.

B5 was tested. Which Ki did it give?
Its Ki is 0.575 nM.

Which Ki does the source give for B6 here?
Its Ki is 0.38 nM.

B7 was tested. Which Ki did it give?
Its Ki is 0.238 nM.

How did the Ki turn out when B8 was run?
The Ki was 0.588 nM.

Target: T3, human melanocortin receptor subtype 3 (hMC3-R) (human, UniProt P41968 1-323)
T3 construct: whole, on cells; membranes of CHO-K1 cells
T3 sequence (P41968 whole entry): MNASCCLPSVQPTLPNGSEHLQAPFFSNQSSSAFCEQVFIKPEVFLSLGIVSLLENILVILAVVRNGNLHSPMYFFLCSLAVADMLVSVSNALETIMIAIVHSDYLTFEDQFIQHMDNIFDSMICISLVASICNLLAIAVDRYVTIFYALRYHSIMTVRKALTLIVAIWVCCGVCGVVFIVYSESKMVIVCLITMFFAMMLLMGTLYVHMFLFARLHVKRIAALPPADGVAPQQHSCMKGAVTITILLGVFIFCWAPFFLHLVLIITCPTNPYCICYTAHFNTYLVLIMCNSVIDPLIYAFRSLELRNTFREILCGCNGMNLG
Experiment: [125I]-NDP-α-MSH competition, membranes

B1 was tested. Which Ki did it give?
The Ki was 19.3 nM.

With B2 as the binder, how does the Ki read?
Its Ki is 2.08 nM.

For B3, which Ki is on record?
The Ki was 14.3 nM.

With B4 as the binder, how does the Ki read?
The Ki was 2.59 nM.

With B5 as the binder, how does the Ki read?
The Ki was 1.95 nM.

For B6, which Ki is on record?
Its Ki is 5.22 nM.

For B7, which Ki is on record?
Its Ki is 6.56 nM.

With B8 as the binder, how does the Ki read?
Its Ki is 6.28 nM.

Target: T4, human melanocortin receptor subtype 5 (hMC5-R) (human, UniProt P33032 1-325)
T4 construct: whole, on cells; membranes of CHO-K1 cells
T4 sequence (P33032 whole entry): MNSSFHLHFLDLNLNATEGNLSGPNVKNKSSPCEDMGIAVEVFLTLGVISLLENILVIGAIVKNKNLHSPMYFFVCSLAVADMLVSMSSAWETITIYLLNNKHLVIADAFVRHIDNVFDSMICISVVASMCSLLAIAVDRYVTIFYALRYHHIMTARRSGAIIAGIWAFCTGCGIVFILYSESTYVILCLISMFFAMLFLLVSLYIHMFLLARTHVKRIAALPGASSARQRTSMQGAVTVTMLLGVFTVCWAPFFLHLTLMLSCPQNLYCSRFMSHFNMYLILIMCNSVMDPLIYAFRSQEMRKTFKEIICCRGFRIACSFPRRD
Experiment: [125I]-NDP-α-MSH competition, membranes

How did the Ki turn out when B1 was run?
The Ki was 88.8 nM.

B2 was tested. Which Ki did it give?
The Ki was 19.3 nM.

With B3 as the binder, how does the Ki read?
The Ki was 84 nM.

B4 was tested. Which Ki did it give?
The Ki was 19.2 nM.

Which Ki does the source give for B5 here?
The Ki was 15.5 nM.

With B6 as the binder, how does the Ki read?
Its Ki is 15.3 nM.

Which Ki does the source give for B7 here?
Its Ki is 41.7 nM.

B8 was tested. Which Ki did it give?
Its Ki is 22.6 nM.

Source: patent US20120135923A1 (IPSEN PHARMA S A S, published 2012)
